Measured values published in patent US5710126A, “T cell epitopes of ryegrass pollen allergen” (ImmuLogic Pharmaceutical Corporation, priority 1995, dated 1998).
Values belong to the molecule of their own block, whether it stands above or below them.

Columns and labels:
human IgE = assay: Direct ELISA of human IgE binding to coated antigen
Method: (§1) To examine the importance of Lol p V, both direct and competition ELISA assays were performed. In the direct ELISA, 100 μl of 10 μg/ml of antigen in Phosphate Buffered Saline, pH 7.4 (PBS) was used to coat Immulon II (Dynatech, Chantilly, Va.) 96 well plates for 4 hours at room temperature (RT) or overnight (O/N) at 4° C. In between each step the plates were washed 3× with PBS-T. The excess coating antigen(s) was removed and the wells blocked with 300 μl/well 0.5% gelatin+1 mg/ml PVP in PBS for 1 hour at RT. Serially diluted patient plasma or the diluent PBS+0.05% Tween^-20 was incubated in at 100 μl/well in duplicate wells overnight at 4° C. […] Plates were read on a MR7000 plate reader (Dynatech, Chantilly, Va.) with a 450 nm filter. The absorbance levels of duplicate wells were averaged. The results were graphed as absorbance vs. dilution. […] The results are plotted as the absorbance vs. the log of the concentration of competing antigen.
For the direct ELISA, wells were coated with either soluble pollen extract (SPE) of ryegrass pollen or rLol p V (purified native Lol p V may have a small amount of Lol p I; use of recombinant material assures that the IgE binding is only to Lol p V ) and human IgE antibody binding to these antigens was analyzed. […]

[1] = tested on: human basophil mediator release; assay: Histamine release assay on whole blood of a ryegrass allergic individual; format: cell-based; conditions: one ryegrass allergic individual; 37° C., 30 minutes; FIG. 12
Method: A histamine release assay was performed on one ryegrass allergic individual, using Lol p SPE and rLol p V as the added antigens. This assay is a measure of IgE reactivity through human basophil mediator release, and it is based on the detection of an acylated derivative of histamine using a specific monoclonal antibody (Morel, A. M. and Delaage, M. A.; 1988, J. Allergy Clin. Immunol. 82:646-654). The reagents for this radioimmunoassay are sold as a kit by Amac Inc. (Westbrook, Me.). Whole heparinized blood drawn from a grass allergic individual and then 200 μl aliquots were mixed with an equal amount of the grass antigens SPE and rLol p V at various concentrations or the diluent, PACM buffer (25 mM PIPES, 100 mM NaCl, 5 mM KCL, 4 mM CaCl2, 1 mM MgCl2, 0.003% HSA, pH7.3) in 1.5 ml polypropylene. The release reactions were carried out at 37° C. for 30 minutes. After this incubation, the samples were centrifuged at 1500 RPM for 3 minutes and the supernatants removed. For the total histamine release, 0.1 ml of blood was added to 0.9 ml of PACM buffer, vortexed, and then boiled for 3 minutes. The samples were spun at 13000 RPM and the supernatant removed for analysis. Duplicate samples were used to measure total release. All of the supernatants are diluted 1:4 in acylation buffer and the remainder of the assay is performed according to the manufacturer's instructions.

[2] = tested on: T cell lines from grass-allergic patients primed in vitro with affinity purified Lol p V; assay: T cell proliferation (tritiated thymidine uptake) of Lol p V-primed T cell lines restimulated with peptides or proteins; format: cell-based, human; conditions: one allergic patient; results not shown; 2-50 μg/ml antigen
Source text: As discussed in Example 2, human T cell stimulating activity can be tested by culturing T cells obtained from an individual sensitive to Lol p V allergen, (i.e., an individual who has an IgE mediated immune response to Lol p V allergen) with a peptide derived from the allergen and determining whether proliferation of T cells occurs in response to the peptide as measured, e.g., by cellular uptake of tritiated thymidine. Stimulation indices for responses by T cells to peptides can be calculated as the maximum CPM in response to a peptide divided by the control CPM. A stimulation index (S.I.) equal to or greater than two times the background level is considered "positive". […]
In addition, preferred peptides have a positivity index (P.I.) of at least about 60, more preferably about 100, more preferably at least about 200 and most preferably at least about 300. The positivity index for a peptide is determined by multiplying the mean T cell stimulation index by the percent of individuals, in a population of individuals sensitive to ryegrass pollen (e.g., preferably a population of at least 15 individuals,more preferably a population of at least 30 individuals or more), who have a T cell stimulation index to such peptide of at least 2.0. […]
This amount of priming antigen was determined to be optimal for the activation of T cells from most grass-allergic patients. […]

specific IgE antibody = conditions: immunoblotting; Lol p V isoforms; WO 93/04174; cited from earlier work
[3] = tested on: human IgE binding to ryegrass pollen SPE; assay: Competition ELISA for IgE binding to ryegrass pollen SPE; conditions: IgE source PHP-A or individual patient plasma; FIGS. 10 and 11
Method: as §1
In the competition assay, ELISA wells were coated with ryegrass pollen SPE and then allergic patient IgE binding was measured in the presence of competing ryegrass pollen SPE, purified native Lol p V, or rLol p V. The source of allergic IgE in this assay was PHP-A (FIG. 10) or individual patient plasma (FIG. 11). […]

IgE binding in direct ELISA (human IgE; IgE source PHP-A, PHP-B or four individual patients, FIGS. 6-9): high IgE binding | IgE binding in direct ELISA to Lol p V peptides and protein (human IgE; IgE source PHP-B, preliminary assay, FIGS. 13a and 13b): very high IgE binding
B1: rLol p V: bacterially expressed recombinant Lol p V encoded by clone 12R, with His6 sequence, purified on Ni chelating column (protein)
chain: ADAGYTPAAAATPATPAATPAAAGGKATTDEQKLLEDVNAGFKAAVAAAANAPPADKFKIFEAAFSESSKGLLATSAAKAPGLIPKLDTAYDVAYKAAEGATPEAKYDAFVTALTEALRVIAGALEVHAVKPATEEVPAAKIPTGELQIVDKIDAAFKIAATAANAAPTNDKFTVFESAFNKALNECTGGAYETYKFIPSLEAAVKQAYAATVAAAPEVKYAVFEAALTKAITAMTQAQKAGKPAAAAATGAATVATGAATAAAGAATAAAGGYKA
histamine release [1]: strong histamine release over a wide concentration range | T cell proliferative response of one patient [2]: responds well

B2: Lol p V: major Lolium perenne L. ryegrass pollen allergen, Group V allergen (protein)
chain: B1 chain
ryegrass pollen sensitive patients possessing specific IgE antibody that bound (specific IgE antibody): 80% | competition for IgE binding to ryegrass pollen SPE [3]: a significant portion of IgE against Lol p SPE is specific for Lol p V

B3: purified native Lol p V: Lol p V allergen affinity purified from ryegrass pollen extract on a mAb 1B9 column (protein)
chain: B1 chain
modifications: The 5 proline residues at the N-terminus were found to be all hydroxyprolines
T cell proliferative response of one patient [2]: responds well
